This note sets out measurements from patent US7034007.

A word on the Kd: it is the concentration at which binding is half-saturated. A high value points to weaker binding.

Assay [1] addresses B2 bradykinin receptor (rabbit airway smooth muscle membranes) (rabbit) (UniProt Q28642). Description: radioligand binding, airway smooth muscle membranes of allergic rabbits treated with B2A bradykinin receptor antisense oligo, 2 mg total.
The target is the same in assay [2]. The assay can be described thus: radioligand binding, airway smooth muscle membranes of saline-treated control allergic rabbits.
The target is the same in assay [3]. Description: radioligand binding, airway smooth muscle membranes of allergic rabbits treated with A1MM1 mismatch control oligo, 2 mg total.
Assay [4] shares this target. Description: radioligand binding, airway smooth muscle membranes of allergic rabbits treated with B2A bradykinin receptor antisense oligo, 0.2 mg total.
Assay [5] has the same target. Description: radioligand binding, airway smooth muscle membranes of allergic rabbits treated with adenosine A1 receptor antisense oligo, 2 mg total.
Assay [6] has the same target. Description: radioligand binding, airway smooth muscle membranes of allergic rabbits treated with adenosine A1 receptor antisense oligo, 0.2 mg total.
For assay [7] the target is unchanged. Description: radioligand binding, airway smooth muscle membranes of allergic rabbits treated with A1MM1 mismatch control oligo, 20 mg total.
Assay [8] has the same target. Description: radioligand binding, airway smooth muscle membranes of allergic rabbits treated with B2MM mismatch oligo, 20 mg total.
For assay [9] the target is unchanged. The assay can be described thus: radioligand binding, airway smooth muscle membranes of allergic rabbits treated with adenosine A1 receptor antisense oligo, 20 mg total.
Assay [10] has the same target. The assay can be described thus: radioligand binding, airway smooth muscle membranes of allergic rabbits treated with B2A bradykinin receptor antisense oligo, 20 mg total.
Assay [11] has the same target. The assay can be described thus: radioligand binding, airway smooth muscle membranes of allergic rabbits treated with B2MM mismatch oligo, 2 mg total.
For assay [12] the target is unchanged. Description: radioligand binding, airway smooth muscle membranes of allergic rabbits treated with B2MM mismatch oligo, 0.2 mg total.

Chain of UniProt Q28642 (Q28642 whole entry): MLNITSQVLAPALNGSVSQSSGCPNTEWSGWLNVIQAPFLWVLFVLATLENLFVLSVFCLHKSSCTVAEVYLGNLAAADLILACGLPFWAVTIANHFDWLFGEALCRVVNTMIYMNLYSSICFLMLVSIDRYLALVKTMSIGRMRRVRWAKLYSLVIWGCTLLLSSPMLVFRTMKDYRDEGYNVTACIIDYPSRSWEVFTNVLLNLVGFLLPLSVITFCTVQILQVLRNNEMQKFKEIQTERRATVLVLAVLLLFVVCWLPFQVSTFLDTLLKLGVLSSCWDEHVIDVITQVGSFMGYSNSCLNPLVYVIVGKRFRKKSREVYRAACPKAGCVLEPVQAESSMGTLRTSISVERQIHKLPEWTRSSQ

On to [3H]NPC 17731 (peptide), for which the Bmax was found to be 11.9 fmol in assay [1]; 14.2 fmol in assay [2]; 14.6 fmol in assay [3]; 15.1 fmol in assay [4]; 15.5 fmol in assay [5]; 15 fmol in assay [6]. The Bmax in assay [7] came to 14 fmol; in assay [8], 14 fmol; in [9] it was 14.8 fmol; in assay [10] it was 8.7 fmol; in assay [11], 14.8 fmol; in assay [12], 15.1 fmol. Further, the Kd in assay [1] is 0.34 nM; in assay [2], 0.39 nM; in assay [3] it was 0.38 nM; in assay [4] it was 0.35 nM; in assay [5], 0.41 nM; in assay [6], 0.34 nM. Also, the Kd in assay [7] came to 0.35 nM; in [8] it was 0.41 nM; in assay [9], 0.39 nM; in [10] it was 0.38 nM; in [11] it was 0.37 nM; in [12], 0.36 nM.
